Data on ten molecules can be found in US20230220095A1 (ALETA BIOTHERAPEUTICS, published 2023).

B1: BCMA-anti-CD38 fusion protein, construct #494 (BCMA ECD C-terminal to the anti-CD38 scFv, C-terminal His tag) (other)
chain: DIQMTQSPSSLSASVGDRVTITCRASQGIRSWLAWYQQKPEKAPKSLIYAASSLQSGVPSRFSGSGSGTDFTLTISSLQPEDFATYYCQQYNSYPLTFGGGTKVEIKGGGGSGGGGSGGGGSGGGGSQVQLVQSGAEVKKPGSSVKVSCKAFGGTFSSYAISWVRQAPGQGLEWMGRIIRFLGIANYAQKFQGRVTLIADKSTNTAYMELSSLRSEDTAVYYCAGEPGERDPDAVDIWGQGTMVTVSSGGGGSGGGGSGGGGSGGGGSMLQMAGQCSQNEYFDSLLHACIPCQLRCSSNTPPLTCQRYCNASVTNSVKGTNAHHHHHH
notes: also called A494
B2: BCMA-anti-CD38 fusion protein, construct #493 (BCMA ECD N-terminal to the anti-CD38 scFv, C-terminal His tag) (other)
chain: MLQMAGQCSQNEYFDSLLHACIPCQLRCSSNTPPLTCQRYCNASVTNSVKGTNAGGGGSGGGGSGGGGSGGGGSDIQMTQSPSSLSASVGDRVTITCRASQGIRSWLAWYQQKPEKAPKSLIYAASSLQSGVPSRFSGSGSGTDFTLTISSLQPEDFATYYCQQYNSYPLTFGGGTKVEIKGGGGSGGGGSGGGGSGGGGSQVQLVQSGAEVKKPGSSVKVSCKAFGGTFSSYAISWVRQAPGQGLEWMGRIIRFLGIANYAQKFQGRVTLIADKSTNTAYMELSSLRSEDTAVYYCAGEPGERDPDAVDIWGQGTMVTVSSHHHHHH
notes: also called A493; N-terminal construct
B3: anti-GPRC5D scFv-BCMA ECD-His fusion protein, construct 536 (other)
chain: QSVLTQPASVSGSPGQSLTISCTGTSNDVGAYKYVSWYQQYPGKAPKLILYDVFKRPSGVSNRFSGSKSDNTASLTISGLQAEDEADYYCFSLTSSNTYVFGTGTKVTVLGSRGGGGSGGGGSGGGGSLEMAQMQLVQSGAEVKKPGASVKVSCKASGYTFNRYAITWVRQAPGQGLEWMGWISAYNGNSHYAQKLQGRVTMTTDTSTGTAYMELRRLRSDDTAVYYCARMAYDSWGQGTLVTVSSGGGGSGGGGSMLQMAGQCSQNEYFDSLLHACIPCQLRCSSNTPPLTCQRYCNASVTNSVKGTNAHHHHHH
notes: scFv of construct 522 - linker - BCMA ECD - His; Tested as HEK supernatant; also called A536; anti-GPRC5D-BCMA fusion protein
B4: anti-GPRC5D scFv-BCMA ECD-His fusion protein, construct 539 (other)
chain: QSVVTQPPSMSAAPGQQVTISCSGGNSNIERNYVSWYLQLPGTAPKLVIFDNDRRPSGIPDRFSGSKSGTSATLGITGLQTGDEADYYCGTWDSSLRGWVFGGGTKLTVLGSRGGGGSGGGGSGGGGSLEMAEVQLVESGGGLIQPGGSLRLSCAASGFTFSNYAMNWVRQAPGKGLEWVSTINGRGSSTIYADSVKGRFTISRDNSKNTLYLQMNSLRAEDTATYYCARYISRGLGDSWGQGTLVTVSSGGGGSGGGGSGGGGSMLQMAGQCSQNEYFDSLLHACIPCQLRCSSNTPPLTCQRYCNASVTNSVKGTNAHHHHHH
notes: scFv of construct 525 - G4Sx3 linker - BCMA ECD - His; Tested as HEK supernatant; also called A539; anti-GPRC5D-BCMA fusion protein
B5: anti-GPRC5D scFv-BCMA ECD-His fusion protein, construct 538 (other)
chain: SSELTQDPAVSVALGQTVRITCQGDSLRSYYASWYQQKPGQAPVLVIYGKNNRPSGIPDRFSGSSSGNTASLTITGAQAEDEADYYCNSRDSSGNPPVVFGGGTKLTVLGSRGGGGSGGGGSGGGGSLEMAQVQLVESGGGLVHPGGSLRLSCAASGFTFRSHSMNWVRQAPGKGLEWVSSISSDSTYTYYADSVKGRFTISRDNAKNSLYLQMNSLRAEDTAVYYCARSGGQWKYYDYWGQGTLVTVSSGGGGSGGGGSGGGGSMLQMAGQCSQNEYFDSLLHACIPCQLRCSSNTPPLTCQRYCNASVTNSVKGTNAHHHHHH
notes: scFv of construct 524 - G4Sx3 linker - BCMA ECD - His; also called A538; bridging protein #538
B6: anti-GPRC5D scFv-BCMA ECD-His fusion protein, construct 537 (other)
chain: QSVLTQPPSASGTPGQRVTISCSGSRSNVGGNYVFWYQQVPGATPKLLIYRSNQRPSGVPDRFAGSKSGSSASLAISGLRSEDEADYYCATWDDSLSGFVFGTGTKVTVLGSRGGGGSGGGGSGGGGSLEMAEVQLVESGGGLVKPGGSLRLSCAASGFTFSDYYMSWIRQAPGKGLEWVSYISSSGSTIYYADSVKGRFTISRDNAKNSLYLQMNSLRAEDTAVYYCARGYGKAYDQWGQGTLVTVSSGGGGSGGSMLQMAGQCSQNEYFDSLLHACIPCQLRCSSNTPPLTCQRYCNASVTNSVKGTNAHHHHHH
notes: scFv of construct 523 - linker - BCMA ECD - His; Tested as HEK supernatant; also called A537; anti-GPRC5D-BCMA fusion protein
B7: anti-GPRC5D scFv, construct 523 (scFv)
scFv: QSVLTQPPSASGTPGQRVTISCSGSRSNVGGNYVFWYQQVPGATPKLLIYRSNQRPSGVPDRFAGSKSGSSASLAISGLRSEDEADYYCATWDDSLSGFVFGTGTKVTVLGSRGGGGSGGGGSGGGGSLEMAEVQLVESGGGLVKPGGSLRLSCAASGFTFSDYYMSWIRQAPGKGLEWVSYISSSGSTIYYADSVKGRFTISRDNAKNSLYLQMNSLRAEDTAVYYCARGYGKAYDQWGQGTLVTVSSHHHHHH
notes: VL-G4Sx3-VH-His; Tested as HEK293 supernatant; also called A523
B8: anti-GPRC5D scFv, construct 522 (scFv)
scFv: QSVLTQPASVSGSPGQSLTISCTGTSNDVGAYKYVSWYQQYPGKAPKLILYDVFKRPSGVSNRFSGSKSDNTASLTISGLQAEDEADYYCFSLTSSNTYVFGTGTKVTVLGSRGGGGSGGGGSGGGGSLEMAQMQLVQSGAEVKKPGASVKVSCKASGYTFNRYAITWVRQAPGQGLEWMGWISAYNGNSHYAQKLQGRVTMTTDTSTGTAYMELRRLRSDDTAVYYCARMAYDSWGQGTLVTVSSHHHHHH
notes: VL-G4Sx3-VH-His; Tested as HEK293 supernatant; also called A522
B9: anti-GPRC5D scFv, construct 525 (scFv)
scFv: QSVVTQPPSMSAAPGQQVTISCSGGNSNIERNYVSWYLQLPGTAPKLVIFDNDRRPSGIPDRFSGSKSGTSATLGITGLQTGDEADYYCGTWDSSLRGWVFGGGTKLTVLGSRGGGGSGGGGSGGGGSLEMAEVQLVESGGGLIQPGGSLRLSCAASGFTFSNYAMNWVRQAPGKGLEWVSTINGRGSSTIYADSVKGRFTISRDNSKNTLYLQMNSLRAEDTATYYCARYISRGLGDSWGQGTLVTVSSHHHHHH
notes: VL-G4Sx3-VH-His; Tested as HEK293 supernatant; also called A525
B10: anti-GPRC5D scFv, construct 524 (scFv)
scFv: SSELTQDPAVSVALGQTVRITCQGDSLRSYYASWYQQKPGQAPVLVIYGKNNRPSGIPDRFSGSSSGNTASLTITGAQAEDEADYYCNSRDSSGNPPVVFGGGTKLTVLGSRGGGGSGGGGSGGGGSLEMAQVQLVESGGGLVHPGGSLRLSCAASGFTFRSHSMNWVRQAPGKGLEWVSSISSDSTYTYYADSVKGRFTISRDNAKNSLYLQMNSLRAEDTAVYYCARSGGQWKYYDYWGQGTLVTVSSHHHHHH
notes: VL-G4Sx3-VH-His; Tested as HEK293 supernatant; also called A524

Values joined by “and” are separate entries in the source; they are usually repeats but may differ in a detail not shown here. Identical values can stand only once.

The first assay addresses T1, CD38 on Daudi cells (human, UniProt P28907 1-300).
T1 construct: whole, on cells; Endogenous CD38 of Daudi cells
Description: flow cytometry, titration of fusion protein supernatant on Daudi cells (CD38), a-His-PE detection, % Binding. Here is the method: (§1) Daudi cells were obtained from ATCC and cultured in RPMI containing 10% FCS. They were stained for BCMA using anti-BCMA-PE labeled antibody (BioLegend, #357504) and for CD38 using anti-CD38-PE labeled antibody (BioLegend, #356604), or stained with BCMA-containing fusion proteins as described herein. The cells were incubated with antibody or supernatant from A493 or A494 producing cells as follows. The Daudi cells were blocked with human Fc block (BD Biosciences, #BDB564129) for 10 minutes, washed and then diluted to 5×10e5 cells per 50 µl. For each sample, 50 µl of cells was aliquoted per well. For the direct stains, 5 µl of antibody in 50 µl was incubated with the cells for 30 minutes at 4° C. After washing with FACS buffer (FB: PBS, 1% BSA, 0.1% sodium azide), the cells were fixed with a final concentration of 2% paraformaldehyde in FB. For the BCMA fusion protein binding, 50 µl of A493 or A494 supernatant or 3x serial dilution of the supernatant in FB, was added and incubated for 30 minutes at 4° C. The cells were washed 2 times with FB and then stained with anti-His-PE antibody (R&D systems, #ICO5OP) or anti-BCMA-PE antibody (BioLegend, #357504) for 30 minutes at 4° C., the cells were pelleted and washed 2 times in FB and then fixed as above. The samples were analyzed on a BD Accuri 6 flow cytometer and analyzed using BD Accuri 6 software.
For orientation: EC50 means the concentration giving half of the maximal effect. A higher EC50 goes with a less potent agent. For B1, the half-maximal effective concentration (EC50) is 0.00315 µg/mL and 0.093 nM.

In the case of B2, the concentration giving a half-maximal response (EC50) is 0.00218 µg/mL and 0.0642 nM.

For the next assay, the target named is T2, GPRC5D expressed on transfected HEK293 / 293T cells (UniProt Q9NZD1 1-345, limits assumed).
T2 construct: whole, on cells
T2 sequence (Q9NZD1 whole entry): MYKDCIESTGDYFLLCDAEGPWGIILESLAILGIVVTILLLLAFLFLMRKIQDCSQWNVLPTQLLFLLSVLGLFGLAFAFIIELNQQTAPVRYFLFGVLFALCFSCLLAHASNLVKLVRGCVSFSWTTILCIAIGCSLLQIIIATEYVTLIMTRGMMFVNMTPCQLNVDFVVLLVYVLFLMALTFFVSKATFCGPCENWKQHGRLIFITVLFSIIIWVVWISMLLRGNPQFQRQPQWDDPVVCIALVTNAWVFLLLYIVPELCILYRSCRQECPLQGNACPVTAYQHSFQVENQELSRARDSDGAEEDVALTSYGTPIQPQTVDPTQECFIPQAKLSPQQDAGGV
Description: flow cytometry, titration of fusion protein supernatant on GPRC5D-transfected HEK293 cells, anti-His detection, % Binding. On the technique in general: A flow cytometer gives signals particle by particle.
In the case of B3, the EC50 is 0.86 nM and 0.0287 µg/mL.

For B4, the EC50 was 0.0193 µg/mL and 0.572 nM.

For the molecule B5, the EC50 was 0.00608 µg/mL and 0.182 nM.

As for B6, the EC50 is 0.0156 µg/mL and 0.469 nM.

The target in the next assay is T1, CD38 on Daudi cells. Description: flow cytometry, titration of fusion protein supernatant on Daudi cells (CD38), a-BCMA-PE detection, % Binding. Here is the method:
as §1
Take B1: the EC50 is 0.0123 µg/mL and 0.364 nM.

As for B2, the half-maximal effective concentration (EC50) was 0.0056 µg/mL and 0.165 nM.

The target of the next assay is T2, GPRC5D expressed on transfected HEK293 …. Description: binding of HEK293 supernatants to GPRC5D-expressing HEK293 cells.
For B7, the binding result is on record as “binds”.

As to B8, the binding result is on record as “binds”.

In the case of B9, the binding result is “binds”.

B10: the binding result is “binds”.

For a further assay the target is unchanged. Description: flow cytometry, titration of fusion protein supernatant on GPRC5D-transfected HEK293 cells, anti-BCMA detection, % Binding.
Take B3: the half-maximal effective concentration (EC50) is 0.00509 µg/mL and 0.152 nM.

As for B4, the 50% effective concentration (EC50) was 0.00669 µg/mL and 0.198 nM.

With B5, the 50% effective concentration (EC50) was 0.00225 µg/mL and 0.067 nM.

Consider B6, for which the EC50 is 0.00553 µg/mL and 0.166 nM.
